# What was measured:
# Experiment in all cases: SPR, interference factor immobilized
# [1] = biological target: T1, purified interference factor(s), Donor A
# T1 construct: also called interference in serum from Donor A
# [2] = biological target: T2, purified interference factor(s), Donor B
# T2 construct: also called interference in serum from Donor B
# [3] = biological target: T3, purified interference factor(s), Donor C
# T3 construct: also called interference in serum from Donor C
Binder,% of binding of reference (=100%) [1] [%],% of binding of reference (=100%) [2] [%],% of binding of reference (=100%) [3] [%]
"SEQ ID NO: 73 (VHH, Ex. 8; S112G, S113G) VHH: EVQLVESGGGLVQPGGSLRLSCAASRSIGRLDRMGWYRHRPGEPRELVATITGGSSINYGDSVKGRFTISIDNSKNTVYLQMNSLRPEDTAVYYCNFNKYVTSRDTWGQGTLVTVGG",6,8,9
"SEQ ID NO: 75 (VHH, Ex. 8) VHH: EVQLVESGGGLVQPGGSLRLSCAASRSIGRLDRMGWYRHRPGEPRELVATITGGSSINYGDSVKGRFTISIDNSKNTVYLQMNSLRPEDTAVYYCNFNKYVTSRDTWGQGTLVTVSS",1,11,16
"SEQ ID NO: 76 (VHH, Ex. 8) VHH: EVQLVESGGGLVQPGGSLRLSCAASRSIGRLDRMGWYRHRPGEPRELVATITGGSSINYGDSVKGRFTISIDNSKNTVYLQMNSLRPEDTAVYYCNFNKYVTSRDTWGQGTLVTVSS",2,17,20
"SEQ ID NO: 79 (VHH, Ex. 8) VHH: EVQLVESGGGLVQPGGSLRLSCAASRSIGRLDRMGWYRHRPGEPRELVATITGGSSINYGDSVKGRFTISIDNSKNTVYLQMNSLRPEDTAVYYCNFNKYVTSRDTWGQGTLVTVSS",1,17,13
"SEQ ID NO: 88 (VHH, Ex. 8; L11S, T110Q) VHH: EVQLVESGGGSVQPGGSLRLSCAASRSIGRLDRMGWYRHRPGEPRELVATITGGSSINYGDSVKGRFTISIDNSKNTVYLQMNSLRPEDTAVYYCNFNKYVTSRDTWGQGTLVQVSS",1,5,11
"SEQ ID NO: 77 (VHH, Ex. 8) VHH: EVQLVESGGGLVQPGGSLRLSCAASRSIGRLDRMGWYRHRPGEPRELVATITGGSSINYGDSVKGRFTISIDNSKNTVYLQMNSLRPEDTAVYYCNFNKYVTSRDTWGQGTLVTVSS",2,12,13
